Assay results from the DeepSol protein solubility set.

Assay: soluble on expression in E. coli; label from the status in PepcDB or PDB records

Row | Sequence | soluble on expression in E. coli
1 | MTEFESTEDQKPTMLASLDHLSLRNWASPFEEASTPPTASDDSFQSSSEDNLSLRNWAPLSPNPETVKSAKSLRNYSTNPLIPSYICDLCESPKTSELRVAYDAATFQTTYSYSIIWDVEMNDVEHYRKVMETVSKSSANSSRSSFGYFFEARPGMCRLLRTLHNYATDTSQASLADYMIELSGRAPSPVVVKCGHYLCTACFDIVKNADGTYGCSSQQCYWKGSSRQESKKNYENDICRKQRAKALGMKDLGIDVKPASSASSNPIKETSDSSSETNCSLSSGPVSFNHTMLNSLTPVAEHSVAIMMVLVEPLEVYGIVHSYVEMSFPLDTNLAKALGVMLHRKKKILGDYVANGKLYFGFVNDDEKIGMRRIKSNYYDSLMVAEIPKFDDRVVLIFDVGDYVARGFKIYLK | not soluble
2 | MTEFTLAHLSDPHLPLPPKTSLRHLASKRALGYLNWRRNRHLIHRRDILDTLVADLQAQQPDHIAVTGDLVNIALVNEFAPARQWLESVGPADRVSLVPGNHDAYVRSTAHRFAETFPDYISGDDATPGFPYLRRREAIAIIGVSSAVPTAPLRATGWLGAPQRAALEALLQSLAGERVFKVLLIHHPLQSRSRHKRLTDAADLIALLQRHPVDLVLHGHDHVHATVRIDTPFGAIPVVGVPSASAMNDRHRPSAAYNLFKISEGNDGWRCLEHHHHHH | not soluble
3 | MTEHLKSNTMVLPLKKGAQKMTTITLKVSEADKTFMKAMAKFEGVSLSELIRTKTLEALEDEYDARVADLAYQEYLEDLEKGVEPITWEEMMHDLGLKDE | not soluble
4 | MTEILQTLKEYIPISLEEMSGIKLMNRTDTKYVTSYQILKEILLAAGHDYRVQEVNGEYNIAYHTIYLDTADRDMYLTHQNGRVVREKIRIRTYVDSDLTFLEVKNKNNKGRTDKKRIRIGSIDTIKEDGGEAFLRQHAWYEQSQLLPLLENSFRRITLVNKHKTERLTIDTGVTFCCLQSGKISSLDNIVIIELKRDGHNSSPIKEILRKLHIQSSGFSKYCIGSALTVSHLKCNRLKPKLRMLNKMGVY | not soluble
5 | MTEKDYGQVTGMVHSTESFGSVDGPGIRFIIFLQGCKLRCQYCHNPDTWEMETNNSKIRTVNDVLKEALQYKHFWGKKGGITVSGGEAMLQIDFITALFIEAKKLGIHTTLDTCGFTYRPTPEYHQVLDNLLAVTDLILLDLKEIDEKQHKIVTRQPNKNILQFARYLSDKQIPVWIRHVLVPGLTD | not soluble
6 | MTEKKIDFKKEEKKFYAPKRKPERIFVPEMNFLMVDGKGDPDGEEYQKAVQSLYAIAYTIKMSKMGETRLDGYSDFVVPPLEGFWWSEGKFDLKDRDAWLWTSILRQPDFVTEEVLEWAKEVARKKKPDV | not soluble
7 | MTELQHPVLVVDDETDILDLMEMTLMKMGLRVHTASGVAEAKNKLDSQRYSLVLTDMRMPDGSGLEVVQHINSRLLDTPVAVITAFGNADQAQEALRCGAFDPDTMQIQDYLDQIERDIIEQTLKQTEGNRTQAAKRLGISFRSMRYRMERLNIG | not soluble
8 | MTENELLTRCGGKCELCGSDVELAIYDLPASDGHENEIMICENCSSQIAAPDTMDMNHWRCLNDSMWSQVPAVQVMSYRMLKRLSGESWAQDLLDMLYLEDDLRAWGDAEAAAASDDTPPTLDSNGAVLNAGDTVVIIKDLNVKGTSFVAKRGTAVRNIALTNNPEHIEGRVNGTRIVILTCFVKKSLEHHHHHH | soluble
9 | MTEQLPNCPECGSAYAYEDRGLFICPECGHEWSPTEEVAEEGLVVKDSNGNLLADGDSVTVIKDLKVKGASGAIKQGTKVKNIRLVEGDHNIDCKVDGFGPMKLKSEFVKKN | not soluble
10 | MTERKLVAERNFEVNGYDIDAMGIVSNIVYIRWFEDLRTDFINQYMPYSDMMNQQISPILMNTEAEYKTPITIHDKPVGRCYLVKASKLRWEFEFEIESEDAVHCIGKQSGTFFDLQKKKVTRLPEVFQTILSLEHHHHHH | not soluble
11 | MTERLEFTESAFEILGRKWNGLIIQSLLDSDRGSLHFAELSRSVHACSDRVLTVRLKELEDAGIIKRVCCPDNGKLGYRLTEKGSSMRPLMSEISRWAAENI | not soluble
12 | MTEWTGEERYQRIEDVDTEYFKTLKQQVDQSKFRQQFHIQPETGLLNDPNGLIFYKGKYYVSHQWFPLGAVHGLKYWYNYTSDDLINFKAEGPILNPDTKYDSHGVYSGSAFEYNGHLYYMYTGNHRDNHWQRHASQMIARLKEDGSVEKFPKPVISQQPEGYTSHFRDPKVFKYDEKYYAIIGAQNNDQQGRLLLYNTEDIINWHYLGEINTELDDFGYMWECPDYFNVDNQDVILICPQGIEPKGDQFKNIYQSGYILGKFDIEKLTYEHENFVELDNGFDFYAPQTFLDEKGRRVLIGWMGLPEIEYPTDNEGWAHCLTTPRVLNVENGQLKQRPYPALEKLRHNKETALGYANKFTRKLHPYEGKQYELIIDILDNDATEVYFELRTSKTSSTLIAYNKRENKITLDRSDSGLLPTNVEGTTRSTILDTPLKQLQIFVDTSSIEIFCNDGERVLTSRIFPTEDALGIKTSTESGQVYLQFTKYDLKDEHK | not soluble
13 | MTFALGQRWISDTESDLGLGTVVAMDARTVTLMFAASEENRVYARNDAPVTRVTFNVGDVIDCQEGWSLKVEEVLEDEGLYTYFGTREDTQETAVVLREIFLSNQIRFNKPQDKLYAGQIDRMDNFVLRY | not soluble
14 | MTFHYPNGIPYNHHEAQSPKKQVKKKRPVEFGNRGMDFEEAINQSNQYYLLNKQAVVHKKPTPVQIVKVDYPKRSAAVIKEAYFRQASTTDYNGVYQGRYIDFEAKETKNTTSFPFKNFHQHQIDHMEQCIAQQGICFVLLWFSSLKRCFFFSGENLITHWKNQAVTGKKSMPLALIEKEGIELSFGIAPRIPYLDAVEQYIQTH | not soluble
15 | MTFYFYFVINMEKVAIYIIGDIVLAENTGKALKKWRNLFNIQQIELAKYLNVSPSVISDYEVGRRKNPGVNIIKKYVLALIEIDKEKGGQTIKALKRILDKSPSMKAILSIKEYENPITLNEFVNIIDGEIAVGDNSDTPIYGHTVVDSIKAILEMTGDDFYHLYGWTTERALIFTNVSTGRSPMVAVRVSIMKPRVVVLQGINKDKIDSLALKLAEIDNIPLITTHLDTKELIKRLNEIK | not soluble
16 | MTHATVTQTVHYHNGETGGQMQADTTNEVNFDRTVTIDTVTGEITHYGDWEADGDDYFKGFDSPTFDGYFADVQHTGEVKGVDPEQGTVDDVTITYYALEHHHHHH | soluble
17 | MTIDCHEDRRVLLVPHTGRPQNVASAALAAELLDDSGVGVRVLVPAEDTTVATHPVLGQFERVSHSPQATQSVDLVLVLGGDGTFLRAADLAHGADLPVLGINLGHVGFLAEWEKDSLDEAVRRVTKGSFRIEERMTLDVSVYDSNGTAIGRGWALNEVSIENSNRSGVLDATLEIDSRPVSSFGCDGIIVSTPTGSTAYAFSAGGPVLWPELDAILVVPNNAHALFTKPLVVSPRSSVAVESHPSAFPATAVMDGFRSISVPPGARVEVKRGSRSIKWVRLDDIPFTDRLVTKLRLPVEGWRGPKNMIPQINPHSALEHHHHHH | soluble
18 | MTIEKIFTPQDDAFYAVITHAAGPQGALPLTPQMLMESPSGNLFGMTQNAGMGWDANKLTGKEVLIIGTQGGIRAGDGRPIALGYHTGHWEIGMQMQAAAKEITRNGGIPFAAFVSDPCDGRSQGTHGMFDSLPYRNDAAIVFRRLIRSLPTRRAVIGVATCDKGLPATMIALAAMHDLPTILVPGGATLPPTVGEDAGKVQTIGARFANHELSLQEAAELGCRACASPGGGCQFLGTAGTSQVVAEALGLALPHSALAPSGQAVWLEIARQSARAVSELDSRGITTRDILSDKAIENAMVIHAAFGGSTNLLLHIPAIAHAAGCTIPDVEHWTRINRKVPRLVSVLPNGPDYHPTVRAFLAGGVPEVMLHLRDLGLLHLDAMTVTGQTVGENLEWWQASERRARFRQCLREQDGVEPDDVILPPEKAKAKGLTSTVCFPTGNIAPEGSVIKATAIDPSVVGEDGVYHHTGRVRVFVSEAQAIKAIKREEIVQGDIMVVIGGGPSGTGMEETYQLTSALKHISWGKTVSLITDARFSGVSTGACFGHVSPEALAGGPIGKLRDNDIIEIAVDRLTLTGSVNFIGTADNPLTPEEGARELARRQTHPDLHAHDFLPDDTRLWAALQSVSGGTWKGCIYDTDKIIEVINAGKKALGI | not soluble
19 | MTIHNFDLLVVGGGINGTGIARDAAGRHLSVCLCEQHDLASHTSSASTKLIHGGLRYLEYYEFALVSKALAEREILLRQAPHIVRPLHFILPHQPHLRPTWIIRAGLLLYDHLGFSRRTLPRSRRLNLAQHPAGQPLKQELHTGFMYCDAQVQDARLVVLNAMDAAQRGARILTRTRCVRTRRDGAHWLTELEDAQGRQQQIRTRAIVNAAGPWAVTFLDHIAQQPHQHTLRLVKGSHIVVPRLFEHEHAYIFQQPDRRIVFAIPYEQHFTLIGTTDVDYVADPANPHIDAAETMYLCNAVNSYFRQQITPEDVLWSYSGVRPLLNDGHNNASKVTRDYQLEILGNSAPLLNVFGGKLTTYRKLSEEAVNQLCVALDHPYRAWTANGPPLPGGEHHDIAALQNTLRQHRPWLPTATAQRLIHNYGTYAETLLGNATNLHTLGIHFGADLYQAEVDYLRTHEWACSAEDILWRRSKLGLHLDAHGTQRLEDYLRSCSRIPDHADTTTQLEHHHHHH | not soluble
20 | MTIKWIDWVKQIQSIAQAGLTYSKDVYDIERFQQLRDISISMMSHYTKTDWEVVEKLFASETGYQTPKVDIRAVVFQNEKLLFVKEKSDGKWALPGGWADVGYTPTEVAAKEVFEETGYEVDHFKLLAIFDKEKHQPSPSATHVYKIFIGCEIIGGEKKTSIETEEVEFFGENELPNLSIARNTEDQIKEMFAYMKDPQKEKLID | not soluble
21 | MTILFARNIEKGFGDRTLFTLPSLEIQAQDRIGIVGVNGAGKSTLLQILSKEIEADKGIVTHHSSISIIPQISEELPKVASSTAKGKWNISNISNSMSGGERMRLKIAHALEQDAGILFADEPTSHLDMFGTEQLEKALLSYKGALVLISHDREFLDNICTKIIEIEDGIIQEYKGNYSNYRKQKERERTQKQAEYEQYINEKERLEKSILQKKQRASSMTKIPTRFSSSESKLYKLSGANGQEQVSKAAKALETRLEKLEKKEKPKELSQAQFDVQYHTPIHSKVAVQFNKATKKIGDLTLFKNMNGTIAPGAKLAILGANGSGKTTLFNMLLANERGIQLSKSCKIGYFEQTLSILKTDKTILENVLEETNYTESFVRTILARLLFRREDVHKPVHVLSGGERMKVALAKVFLGNYNMLLLDEPTNYLDLATQEELESMLQEYPGTILFISHDRAFIRSVADHILQVDESEPRVFHGNYEQYTNRTADASVNVTAQELLRLQTKLTEIIGRISIPNHHDDITSLEQEYETLLVKIRKCKEAL | not soluble
22 | MTINYQFGDVDAHGAMIRAQAGSLEAEHQAIISDVLTASDFWGGAGSAACQGFITQLGRNFQVIYEQANAHGQKVQAAGNNMAQTDSAVGSSWA | not soluble
23 | MTIRNFAIEYDAINDRNTFSNGDTLAGRVIVEVSKQTKITSLTVQAKGKANVAWTETHGEESVTYWDKEKYFSQTQSVLPEDKADGSVTLVAGRHVFPFAFQLPNQSLPSSFKGVHGKIHYRLMAKLSRSFRAASKAEAKFTFVARADYDTSTLTTPQHGSKDKNVMFFASGNISMDIFLPKTGYQQGEGLIVNGEIVNSSTRKIVPKYIIYQKQSFFAGGQRAVHTTEILKEKGEPLVSSTRENLYKVLPLPPEISSTIHNCRILKVEYRLKVILDVSFTKNPVIKLPFIVLPLCNETPPKAIEEGLYPDLAKMKISN | soluble
